Consider three molecules from publication PMC12525004, “Bacillus subtilis DinG 3′⟶5′ Exo(ribo)nuclease: A Helpmate to Mitigate Replication Stress” (International Journal of Molecular Sciences, 2025).

Some results are limits rather than exact numbers.

To fix the notation:
B1: RecA (natural protein, B. subtilis, UniProt P16971 1-348, looked up)
chain: MSDRQAALDMALKQIEKQFGKGSIMKLGEKTDTRISTVPSGSLALDTALGIGGYPRGRIIEVYGPESSGKTTVALHAIAEVQQQGGQAAFIDAEHALDPVYAQKLGVNIEELLLSQPDTGEQALEIAEALVRSGAVDIVVVDSVAALVPKAEIEGDMGDSHVGLQARLMSQALRKLSGAINKSKTIAIFINQIREKVGVMFGNPETTPGGRALKFYSSVRLEVRRAEQLKQGNDVMGNKTKIKVVKNKVAPPFRTAEVDIMYGEGISKEGEIIDLGTELDIVQKSGSWYSYEEERLGQGRENAKQFLKENKDIMLMIQEQIREHYGLDNNGVVQQQAEETQEELEFEE
notes: RecA recombinase, Bacillus subtilis; overproduced from plasmid pBT61 in B. subtilis BG214; also called recombinase RecA

The target in data set [1] is T1, DinG D10A E12A (B. subtilis, UniProt P54394 1-931, D10A | E12A).
T1 construct: DinG, Bacillus subtilis, 931 aa, with codons 10 (Asp) and 12 (Glu) replaced by Ala; cloned into pET3a (pCB1259); also called exonuclease-deficient DinG; ExoI-deficient DinG variant; source: E. coli BL21(DE3) [pLysS] carrying pCB1259, purified by the same protocol as wt DinG
T1 sequence (looked up): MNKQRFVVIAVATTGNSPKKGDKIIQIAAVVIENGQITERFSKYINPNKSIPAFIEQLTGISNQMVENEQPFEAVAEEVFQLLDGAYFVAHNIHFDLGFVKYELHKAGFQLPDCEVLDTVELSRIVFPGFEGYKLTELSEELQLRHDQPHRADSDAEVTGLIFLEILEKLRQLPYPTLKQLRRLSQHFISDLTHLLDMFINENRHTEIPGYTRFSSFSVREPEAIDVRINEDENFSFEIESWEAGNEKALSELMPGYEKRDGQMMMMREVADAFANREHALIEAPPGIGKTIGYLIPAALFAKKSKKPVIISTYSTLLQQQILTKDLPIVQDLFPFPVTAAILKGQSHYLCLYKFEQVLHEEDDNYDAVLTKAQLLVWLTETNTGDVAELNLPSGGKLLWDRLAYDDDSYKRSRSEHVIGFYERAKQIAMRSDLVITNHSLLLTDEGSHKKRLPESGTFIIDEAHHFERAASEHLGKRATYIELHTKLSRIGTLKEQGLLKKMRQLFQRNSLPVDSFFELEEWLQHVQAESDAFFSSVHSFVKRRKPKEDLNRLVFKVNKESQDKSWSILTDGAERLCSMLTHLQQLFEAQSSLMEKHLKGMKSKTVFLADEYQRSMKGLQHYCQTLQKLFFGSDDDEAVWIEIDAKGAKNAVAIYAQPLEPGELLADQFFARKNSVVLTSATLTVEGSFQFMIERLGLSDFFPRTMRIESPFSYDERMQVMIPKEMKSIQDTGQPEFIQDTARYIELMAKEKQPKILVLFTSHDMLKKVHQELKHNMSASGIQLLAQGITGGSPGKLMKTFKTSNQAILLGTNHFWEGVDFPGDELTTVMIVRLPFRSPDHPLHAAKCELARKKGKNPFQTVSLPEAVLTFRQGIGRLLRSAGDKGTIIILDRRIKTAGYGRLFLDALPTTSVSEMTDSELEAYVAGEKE
The data set can be described thus: far-Western, overlay or dot blot; immuno-dot blot: proteins (75-300 ng) spotted on nitrocellulose, blocked with 5% skimmed milk in PBS, incubated 6 h at 4 °C with 200 ng/ml RecA in PBS, 0.5% skimmed milk powder, 0.1% Triton X-100; washed; retained RecA detected with polyclonal anti-RecA antibody. The note with it: both partners purified.

For data set [2], the target named is T2, DinG K290A (B. subtilis, UniProt P54394 1-931, K290A).
T2 construct: DinG, Bacillus subtilis, 931 aa, with codon 290 (Lys, Walker A box) replaced by Ala; cloned into pET3a (pCB1260); also called ATPase-deficient DinG; source: E. coli BL21(DE3) [pLysS] carrying pCB1260, purified by the same protocol as wt DinG
T2 sequence (looked up): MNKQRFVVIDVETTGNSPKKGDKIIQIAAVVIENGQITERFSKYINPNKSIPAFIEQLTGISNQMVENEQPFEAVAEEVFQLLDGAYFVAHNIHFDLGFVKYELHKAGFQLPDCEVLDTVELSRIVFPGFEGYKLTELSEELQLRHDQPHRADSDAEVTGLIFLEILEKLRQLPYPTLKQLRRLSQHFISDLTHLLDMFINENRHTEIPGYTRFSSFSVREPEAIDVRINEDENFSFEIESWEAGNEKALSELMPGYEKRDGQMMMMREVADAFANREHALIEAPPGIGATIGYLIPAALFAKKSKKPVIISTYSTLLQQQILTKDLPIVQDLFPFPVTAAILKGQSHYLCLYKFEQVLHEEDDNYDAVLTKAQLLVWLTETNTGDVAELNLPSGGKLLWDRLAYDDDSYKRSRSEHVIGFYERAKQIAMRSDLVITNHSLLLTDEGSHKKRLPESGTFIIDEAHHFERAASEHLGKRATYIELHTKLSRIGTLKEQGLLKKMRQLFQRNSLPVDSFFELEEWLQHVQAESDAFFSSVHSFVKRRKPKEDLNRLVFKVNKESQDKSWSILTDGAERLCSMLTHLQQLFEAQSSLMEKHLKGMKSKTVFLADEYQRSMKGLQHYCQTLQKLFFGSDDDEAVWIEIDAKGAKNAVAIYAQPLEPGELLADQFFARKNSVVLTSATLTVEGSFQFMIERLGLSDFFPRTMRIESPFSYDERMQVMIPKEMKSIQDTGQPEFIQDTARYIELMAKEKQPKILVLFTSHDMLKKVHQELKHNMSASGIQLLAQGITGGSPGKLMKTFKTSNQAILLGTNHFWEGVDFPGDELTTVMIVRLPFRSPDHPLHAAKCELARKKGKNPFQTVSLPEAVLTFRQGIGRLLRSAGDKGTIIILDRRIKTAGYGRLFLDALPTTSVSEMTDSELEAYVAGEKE
The data set is described as above. The note with it: both partners purified.

For data set [3], the target named is T3, DinG (Bacillus subtilis, UniProt P54394 1-931).
T3 sequence: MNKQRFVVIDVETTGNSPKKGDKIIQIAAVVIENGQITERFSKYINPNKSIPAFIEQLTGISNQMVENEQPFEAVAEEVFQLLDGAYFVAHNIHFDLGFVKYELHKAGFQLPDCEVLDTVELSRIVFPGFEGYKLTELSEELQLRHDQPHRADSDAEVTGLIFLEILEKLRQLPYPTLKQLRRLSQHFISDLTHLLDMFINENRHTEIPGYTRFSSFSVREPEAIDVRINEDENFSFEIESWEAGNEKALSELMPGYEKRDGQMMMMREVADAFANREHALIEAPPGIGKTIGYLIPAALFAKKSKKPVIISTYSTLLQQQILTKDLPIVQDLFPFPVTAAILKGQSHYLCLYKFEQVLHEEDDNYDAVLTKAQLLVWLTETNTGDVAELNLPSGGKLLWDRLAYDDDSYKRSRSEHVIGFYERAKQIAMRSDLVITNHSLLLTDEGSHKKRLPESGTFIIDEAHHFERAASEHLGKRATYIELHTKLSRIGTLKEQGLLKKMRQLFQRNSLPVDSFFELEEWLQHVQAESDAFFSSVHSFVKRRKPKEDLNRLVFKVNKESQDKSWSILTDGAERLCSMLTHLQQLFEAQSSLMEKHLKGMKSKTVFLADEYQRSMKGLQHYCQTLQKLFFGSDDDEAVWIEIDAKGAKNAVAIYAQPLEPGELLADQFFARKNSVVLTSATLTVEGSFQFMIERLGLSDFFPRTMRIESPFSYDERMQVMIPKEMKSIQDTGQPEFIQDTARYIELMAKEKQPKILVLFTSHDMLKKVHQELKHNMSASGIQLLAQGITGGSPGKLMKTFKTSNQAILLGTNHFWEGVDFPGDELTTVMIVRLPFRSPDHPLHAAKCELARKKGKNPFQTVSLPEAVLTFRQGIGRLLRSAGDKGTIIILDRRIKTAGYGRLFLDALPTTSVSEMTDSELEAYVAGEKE
Put plainly: EMSA; 3 mM Mg2+; substrate degraded during assay; Kapp; EMSA, buffer D (composition not in material; 3 mM MgCl2, or 2 mM EDTA instead), 0.5 nM DNA, 37 °C, 10 min (text: 5 min), 15% native PAGE in TBE 1X; pH and salt. To be noted: protein: recombinant; tags: none stated (pET3a, untagged); label: 5'-32P; single strand. A general note: In EMSA bound probe runs differently from free probe, usually more slowly.

Data set [4] addresses T3, DinG. Put plainly: EMSA; 2 mM EDTA, no metal; Kapp; text names lssDNA38, Methods and Fig S4 legend give lssDNA45; EMSA, buffer D (composition not in material; 3 mM MgCl2, or 2 mM EDTA instead), 0.5 nM DNA, 37 °C, 10 min (text: 5 min), 15% native PAGE in TBE 1X; pH and salt. The note with it: protein: recombinant; tags: none stated (pET3a, untagged); label: 5'-32P; single strand.

The target in data set [5] is B1. The data set can be described thus: far-Western, overlay or dot blot; immuno-dot blot: proteins (75-300 ng) spotted on nitrocellulose, blocked with 5% skimmed milk in PBS, incubated 6 h at 4 °C with 200 ng/ml RecA in PBS, 0.5% skimmed milk powder, 0.1% Triton X-100; washed; retained RecA detected with polyclonal anti-RecA antibody. To be noted: both partners purified.

With B1, the binding result in data set [1] and in data set [2] was “binds” in each case.

As to GTACGTATTCAAGATACCTCGTACTCTGTACTGACTCGGATCCTA (ssDNA, biotin-T at position 44 (second from 3' end)) [3'-Biotin gamma32P-lssDNA45], the figures for the “apparent K (half saturation)” value in data set [3] and in data set [4] were under 0.08 nM and about 0.7 nM, respectively.

B2: RnhC (enzyme, B. subtilis, UniProt P94541 1-313, looked up)
chain: MSHSVIKVSLSAIDQMKMTYSGSLTASVPQGAVFQAKPPGCTITAYQSGKVLFQGKNAAAESARWGTAEPQEKKKTAKKPADPRYAPPADIAGMSVIGSDEVGTGDYFGPMTVVCAYVDKTMLPLMKELGVKDSKDLKDPQIIEIARNLIKTIPYSLLVLKNEKYNSMQEKGMSQGKMKALLHNQAITHLLRKLDGVKPEAILIDQFAEPGVYFNHLKGRDIVKERTYFSTKAEGIHLAVAAASIIARYSFLMEMDKLSRAAGMTLPKGAGPHVDEAAAKLILKKGASALRTFTKLHFANTQKAQRLADKKRS
notes: RnhC (RNase HIII), Bacillus subtilis; rnhC gene cloned into NdeI-linearised pET21b (pCB1242); also called RNase HIII; RnhC-His; source: E. coli BL21(DE3) [pLysS] carrying pCB1242 (rnhC-His), purified (Ni2+ His-Trap)
On to B2, for which the binding result in data set [5] was “binds”.
